B1: Arginine-glutamic acid dipeptide repeats protein, residues 502 to 543; numbered along this chain, Q9P2R6 (parent)
chain: LKGYACRHCFTTTSKDWHHGGRENILLCTDCRIHFKKYGELP

± gives the uncertainty stated by the source.

This note sets out measurements from the Human Domainome abundance scans (Beltran et al. 2025).

The variants in the data set derive from B1. The data set is described as follows: abundance fitness (aPCA) (normalised: wild type 0, dead -1); higher = more abundant; growth selection in yeast, the domain comes from the species named. The conditions noted are these: Homo sapiens.
As to LKGYACRHCFTTTSKDWHHGGRENILLCMDCRIHFKKYGELP [T29M], the abundance fitness is -0.192 ± 0.058. Under LKGYACRHCFTTTSKDWHHGGRENILLCDDCRIHFKKYGELP [T29D] stands -0.151 ± 0.091; under LKGYACRHCFTTTSKDWHHGGRENILLCADCRIHFKKYGELP [T29A], -0.067 ± 0.036. The figure for LKGYACRHCFTTTSKDWHHGGRENILLCGDCRIHFKKYGELP [T29G] is -0.13 ± 0.033; for LKGYACRHCFTTTSKDWHHGGRENILLCLDCRIHFKKYGELP [T29L] it is -0.089 ± 0.039; for LKGYACRHCFTTTSKDWHHGGRENILLCYDCRIHFKKYGELP [T29Y] it is 0.02 ± 0.069. Under LKGYACRHCFTTTSKDWHHGGRENILLCVDCRIHFKKYGELP [T29V] stands -0.154 ± 0.039; under LKGYACRHCFTTTSKDWHHGGRENILLCIDCRIHFKKYGELP [T29I], -0.094 ± 0.13. Regarding LKGYACRHCFTTTSKDWHHGGRENILLCPDCRIHFKKYGELP [T29P], the abundance fitness is -0.347 ± 0.05. Under LKGYACRHCFTTTSKDWHHGGRENILLCRDCRIHFKKYGELP [T29R] stands -0.125 ± 0.033; under LKGYACRHCFTTTSKDWHHGGRENILLCNDCRIHFKKYGELP [T29N], -0.07 ± 0.27. Under LKGYACRHCFTTTSKDWHHGGRENILLCKDCRIHFKKYGELP [T29K] stands -0.145 ± 0.045; under LKGYACRHCFTTTSKDWHHGGRENILLCQDCRIHFKKYGELP [T29Q], -0.106 ± 0.042. Under LKGYACRHCFTTTSKDWHHGGRENILLCCDCRIHFKKYGELP [T29C] stands -0.096 ± 0.054. As to LKGYACRHCFTTTSKDWHHGGRENILLCHDCRIHFKKYGELP [T29H], the abundance fitness was -0.474 ± 0.41. Under LKGYACRHCFTTTSKDWHHGGRENILLCEDCRIHFKKYGELP [T29E] stands -0.105 ± 0.043; under LKGYACRHCFTTTSKDWHHGGRENILLCWDCRIHFKKYGELP [T29W], -0.042 ± 0.043; under LKGYACRHCFTTTSKDWHHGGRENILLCTICRIHFKKYGELP [D30I], -0.404 ± 0.066. The figure for LKGYACRHCFTTTSKDWHHGGRENILLCTSCRIHFKKYGELP [D30S] is -0.104 ± 0.046; for LKGYACRHCFTTTSKDWHHGGRENILLCTECRIHFKKYGELP [D30E] it is -0.069 ± 0.042; for LKGYACRHCFTTTSKDWHHGGRENILLCTTCRIHFKKYGELP [D30T] it is 0.068 ± 0.072. The figure for LKGYACRHCFTTTSKDWHHGGRENILLCTGCRIHFKKYGELP [D30G] is -0.044 ± 0.034. Consider LKGYACRHCFTTTSKDWHHGGRENILLCTQCRIHFKKYGELP [D30Q], for which the abundance fitness is -0.07 ± 0.043.

Turning to LKGYACRHCFTTTSKDWHHGGRENILLCTKCRIHFKKYGELP [D30K], the abundance fitness is -0.098 ± 0.045. The figure for LKGYACRHCFTTTSKDWHHGGRENILLCTMCRIHFKKYGELP [D30M] is -0.157 ± 0.06. As for LKGYACRHCFTTTSKDWHHGGRENILLCTCCRIHFKKYGELP [D30C], the abundance fitness was -0.248 ± 0.12. Under LKGYACRHCFTTTSKDWHHGGRENILLCTWCRIHFKKYGELP [D30W] stands -0.352 ± 0.039; under LKGYACRHCFTTTSKDWHHGGRENILLCTPCRIHFKKYGELP [D30P], -0.058 ± 0.059. LKGYACRHCFTTTSKDWHHGGRENILLCTLCRIHFKKYGELP [D30L]: the abundance fitness is -0.29 ± 0.051. Under LKGYACRHCFTTTSKDWHHGGRENILLCTDCRISFKKYGELP [H34S] stands -0.04 ± 0.041; under LKGYACRHCFTTTSKDWHHGGRENILLCTDCRIWFKKYGELP [H34W], -0.001 ± 0.037; under LKGYACRHCFTTTSKDWHHGGRENILLCTDCRIRFKKYGELP [H34R], -0.258 ± 0.032. Under LKGYACRHCFTTTSKDWHHGGRENILLCTDCRIEFKKYGELP [H34E] stands -0.242 ± 0.037.

For the variant LKGYACRHCFTTTSKDWHHGGRENILLCTDCRITFKKYGELP [H34T], the abundance fitness was -0.204 ± 0.047. In the case of LKGYACRHCFTTTSKDWHHGGRENILLCTDCRIFFKKYGELP [H34F], the abundance fitness is -0.218 ± 0.094. Consider LKGYACRHCFTTTSKDWHHGGRENILLCTDCRIQFKKYGELP [H34Q], for which the abundance fitness is -0.098 ± 0.043. For LKGYACRHCFTTTSKDWHHGGRENILLCTDCRIMFKKYGELP [H34M], the abundance fitness was -0.204 ± 0.061. For the variant LKGYACRHCFTTTSKDWHHGGRENILLCTDCRIIFKKYGELP [H34I], the abundance fitness was -0.472 ± 0.16. Take LKGYACRHCFTTTSKDWHHGGRENILLCTDCRIDFKKYGELP [H34D]: the abundance fitness is -0.32 ± 0.1.

For the variant LKGYACRHCFTTTSKDWHHGGRENILLCTDCRIGFKKYGELP [H34G], the abundance fitness was -0.193 ± 0.033. The figure for LKGYACRHCFTTTSKDWHHGGRENILLCTDCRIAFKKYGELP [H34A] is -0.033 ± 0.033; for LKGYACRHCFTTTSKDWHHGGRENILLCTDCRICFKKYGELP [H34C] it is 0.05 ± 0.069; for LKGYACRHCFTTTSKDWHHGGRENILLCTDCRIYFKKYGELP [H34Y] it is -0.102 ± 0.088.

For the variant LKGYACRHCFTTTSKDWHHGGRENILLCTDCRIPFKKYGELP [H34P], the abundance fitness was -0.805 ± 0.21. The figure for LKGYACRHCFTTTSKDWHHGGRENILLCTDCRIVFKKYGELP [H34V] is -0.3 ± 0.038. The figure for LKGYACRHCFTTTSKDWHHGGRENILLCTDCRILFKKYGELP [H34L] is -0.282 ± 0.045. Consider LKGYACRHCFTTTSKDWHHGGRENILLPTDCRIHFKKYGELP [C28P], for which the abundance fitness is -0.853 ± 0.26.

In the case of LKGYACRHCFTTTSKDWHHGGRENILLKTDCRIHFKKYGELP [C28K], the abundance fitness was -0.841 ± 0.11. Under LKGYACRHCFTTTSKDWHHGGRENILLQTDCRIHFKKYGELP [C28Q] stands -0.746 ± 0.059. Under LKGYACRHCFTTTSKDWHHGGRENILLRTDCRIHFKKYGELP [C28R] stands -0.921 ± 0.045. Under LKGYACRHCFTTTSKDWHHGGRENILLWTDCRIHFKKYGELP [C28W] stands -1 ± 0.12; under LKGYACRHCFTTTSKDWHHGGRENILLYTDCRIHFKKYGELP [C28Y], -0.617 ± 0.13; under LKGYACRHCFTTTSKDWHHGGRENILLLTDCRIHFKKYGELP [C28L], -1.13 ± 0.11. With LKGYACRHCFTTTSKDWHHGGRENILLMTDCRIHFKKYGELP [C28M], the abundance fitness was -1.31 ± 0.17.

As to LKGYACRHCFTTTSKDWHHGGRENILLVTDCRIHFKKYGELP [C28V], the abundance fitness was -0.851 ± 0.058. Turning to LKGYACRHCFTTTSKDWHHGGRENILLSTDCRIHFKKYGELP [C28S], the abundance fitness was -0.789 ± 0.058.

Turning to LKGYACRHCFTTTSKDWHHGGRENILLCTDCKIHFKKYGELP [R32K], the abundance fitness was -0.137 ± 0.046.

Consider LKGYACRHCFTTTSKDWHHGGRENILLCTDCDIHFKKYGELP [R32D], for which the abundance fitness was -0.001 ± 0.045. Consider LKGYACRHCFTTTSKDWHHGGRENILLCTDCQIHFKKYGELP [R32Q], for which the abundance fitness is -0.035 ± 0.045. For LKGYACRHCFTTTSKDWHHGGRENILLCTDCHIHFKKYGELP [R32H], the abundance fitness was -0.037 ± 0.12.
